T1: human gastric inhibitory peptide receptor (GIPR) (human, UniProt P48546 22-466)
T1 sequence (looked up): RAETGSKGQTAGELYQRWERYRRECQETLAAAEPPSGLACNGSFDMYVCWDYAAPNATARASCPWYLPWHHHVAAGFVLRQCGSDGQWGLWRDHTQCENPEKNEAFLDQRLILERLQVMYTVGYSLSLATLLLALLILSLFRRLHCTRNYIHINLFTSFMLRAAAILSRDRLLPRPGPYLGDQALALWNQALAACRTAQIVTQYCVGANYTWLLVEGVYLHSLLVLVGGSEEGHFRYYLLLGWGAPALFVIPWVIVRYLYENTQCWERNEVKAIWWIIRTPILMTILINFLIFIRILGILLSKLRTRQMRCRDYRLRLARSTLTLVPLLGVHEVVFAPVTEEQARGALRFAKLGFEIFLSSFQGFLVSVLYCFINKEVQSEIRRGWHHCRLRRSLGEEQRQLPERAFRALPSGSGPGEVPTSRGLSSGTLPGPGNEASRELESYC


What was measured:
[1] = molecular target: T1, human gastric inhibitory peptide …; test: cell-based or functional assay
[2] = molecular target: human GLP-1 receptor (GLP-1R) (human, UniProt P43220 24-463); test: cell-based or functional assay
For hGIPR cAMP EC50 ratio in this document: reference of the scale not given here.
For hGLP1R cAMP EC50 ratio in this document: reference of the scale not given here.

Row | Binder | hGIPR cAMP Rel EC50 [1] [nM] | hGIPR cAMP EC50 ratio [1] | hGLP1R cAMP EC50 ratio [2] | hGLP1R cAMP Rel EC50 [2] [nM]
1 | XXEGTFTSDYSIXLDXKAQXEFVEYLIAGGPSSGAPPPS (D-Tyr1, Aib2, αMeL13, Orn16, (2-[2-(2-Amino-ethoxy)-ethoxy]-acetyl)2-(γ-Glu)-CO-(CH2)18-CO2H on K17, Aib20, C-terminal NH2) [Example 359] | 0.172 |  |  | 
2 | YXEGTFTSDYSILLDKKAQAAFIEYLIEGGPSSGAPPPS (Aib2, (2-[2-(2-Amino-ethoxy)-ethoxy]-acetyl)2-(γ-Glu)-CO-(CH2)18-CO2H on K17, C-terminal NH2) [Example 253] | 0.219 | 0.684 | 0.638 | 0.109
3 | YXEGTFTSDYSILLDKKAQRAFIEYLIEGGPSSGAPPPS (Aib2, (2-[2-(2-Amino-ethoxy)-ethoxy]-acetyl)2-(γ-Glu)-CO-(CH2)18-CO2H on K17, C-terminal NH2) [Example 257] | 0.474 | 0.316 | 0.895 | 0.0779
4 | YXEGTFTSDYSILLDKKAQHAFIEYLIEGGPSSGAPPPS (Aib2, (2-[2-(2-Amino-ethoxy)-ethoxy]-acetyl)2-(γ-Glu)-CO-(CH2)18-CO2H on K17, C-terminal NH2) [Example 255] | 0.102 | 1.47 | 1.71 | 0.0407
5 | YXEGTFTSDYSILLDKKAQKAFIEYLIEGGPSSGAPPPS (Aib2, (2-[2-(2-Amino-ethoxy)-ethoxy]-acetyl)2-(γ-Glu)-CO-(CH2)18-CO2H on K17, C-terminal NH2) [Example 256] | 0.643 | 0.233 | 1.38 | 0.0506
6 | YXEGTFTSDYSILLDKKAQQAFIEYLIEGGPSSGAPPPS (Aib2, (2-[2-(2-Amino-ethoxy)-ethoxy]-acetyl)2-(γ-Glu)-CO-(CH2)18-CO2H on K17, C-terminal NH2) [Example 254] | 0.215 | 0.695 | 1.26 | 0.0553
7 | YXEGTXTSDYSIXLDXKAQXEFIXYLIEGGPSSGAPPPS (Aib2, αMeF(2F)6, Aib13, Orn16, (2-[2-(2-Amino-ethoxy)-ethoxy]-acetyl)2-(γ-Glu)-CO-(CH2)16-CO2H on K17, Aib20, D-Glu24, C-terminal NH2) [Example 247] | 0.0622 | 2.58 | 0.614 | 0.0491
8 | YXEGTXTSDYSILLDXKAQXEFIXYLIEGGPSSGAPPPS (Aib2, αMeF(2F)6, Orn16, (2-[2-(2-Amino-ethoxy)-ethoxy]-acetyl)2-(γ-Glu)-CO-(CH2)16-CO2H on K17, Aib20, D-Glu24, C-terminal NH2) [Example 248] | 0.0328 | 5.08 | 0.8 | 0.0428
9 | XXEGTXTSDYSIXLDKKAQXAFIEYLIEGGPSSGAPPPS (not fully specified; D-Tyr1, Aib2, αMeF(2F)6, αMeL13, (2-[2-(2-Amino-ethoxy)-ethoxy]-acetyl)2-(γ-Glu)-CO-(CH2)18-CO2H on K17, Aib20, C-terminal NH2) [Example 336] | 0.0312 |  |  | 
10 | YXEGTXTSDYSIXLDXKAQXEFIXYLIEGGPSSGAPPPS (Aib2, αMeF(2F)6, Nle13, Orn16, (2-[2-(2-Amino-ethoxy)-ethoxy]-acetyl)2-(γ-Glu)-CO-(CH2)16-CO2H on K17, Aib20, D-Glu24, C-terminal NH2) [Example 249] | 0.0437 | 3.84 | 0.778 | 0.0446
11 | YXEGTXTSDYSIXLDXKAQXEFIXYLIEGGPSSGAPPPS (Aib2, αMeF(2F)6, Aib13, Orn16, (2-[2-(2-Amino-ethoxy)-ethoxy]-acetyl)2-(γ-Glu)-CO-(CH2)18-CO2H on K17, Aib20, D-Glu24, C-terminal NH2) [Example 250] | 0.0376 | 4.27 | 0.985 | 0.0306

From patent US20220048967A1 (published 2022)
